The assay deals with bovine trypsin (bovine) (UniProt P00760). Nature of the assay: cell-based or functional assay.
Chain of UniProt P00760 (P00760 24-246): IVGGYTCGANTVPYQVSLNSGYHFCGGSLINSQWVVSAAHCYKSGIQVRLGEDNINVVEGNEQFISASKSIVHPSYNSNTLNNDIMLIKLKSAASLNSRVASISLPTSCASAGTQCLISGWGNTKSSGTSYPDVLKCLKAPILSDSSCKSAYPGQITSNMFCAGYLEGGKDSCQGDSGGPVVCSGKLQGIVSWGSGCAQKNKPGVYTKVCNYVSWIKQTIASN

Regarding “native chicken ovomucoid (nOVD), from chicken egg white (from UniProt P01005 25-210)”, the Trypsin inhibition activity was found to be 13700 TIU/g.

Values taken from patent US20250212928A1.
